Experiment [1] has as its target recombinant 6His-TTLL12 (Tubulin Tyrosine Ligase-Like 12) (UniProt Q14166). Put plainly: pull-down.
For experiment [2], the target named is T1, recombinant GST-Rab19 (UniProt A4D1S5 1-217).
T1 sequence (looked up): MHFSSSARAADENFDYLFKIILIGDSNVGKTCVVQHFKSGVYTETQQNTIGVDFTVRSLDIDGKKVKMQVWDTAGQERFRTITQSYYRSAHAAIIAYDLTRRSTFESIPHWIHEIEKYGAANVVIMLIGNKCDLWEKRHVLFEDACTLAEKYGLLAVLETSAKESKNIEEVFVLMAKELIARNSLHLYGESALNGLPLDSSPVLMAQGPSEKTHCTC
As to the kind of experiment: pull-down.

Regarding “purified porcine brain tubulin (α/β-tubulin heterodimer, kept unpolymerized at 4°C) (from UniProt P02550 1-451; P02554 1-445) (complex)”, the fold increase in tubulin co-precipitation with Ni-beads when TTLL12 is present in experiment [1] is 3 fold.

B1: recombinant 6His-TTLL12 (Tubulin Tyrosine Ligase-Like 12) (natural protein, UniProt Q14166 1-644, looked up)
chain: MEAERGPERRPAERSSPGQTPEEGAQALAEFAALHGPALRASGVPERYWGRLLHKLEHEVFDAGEVFGIMQVEEVEEEEDEAAREVRKQQPNPGNELCYKVIVTRESGLQAAHPNSIFLIDHAWTCRVEHARQQLQQVPGLLHRMANLMGIEFHGELPSTEAVALVLEEMWKFNQTYQLAHGTAEEKMPVWYIMDEFGSRIQHADVPSFATAPFFYMPQQVAYTLLWPLRDLDTGEEVTRDFAYGETDPLIRKCMLLPWAPTDMLDLSSCTPEPPAEHYQAILEENKEKLPLDINPVVHPHGHIFKVYTDVQQVASSLTHPRFTLTQSEADADILFNFSHFKDYRKLSQERPGVLLNQFPCENLLTVKDCLASIARRAGGPEGPPWLPRTFNLRTELPQFVSYFQQRERWGEDNHWICKPWNLARSLDTHVTKSLHSIIRHRESTPKVVSKYIESPVLFLREDVGKVKFDIRYIVLLRSVRPLRLFVYDVFWLRFSNRAFALNDLDDYEKHFTVMNYDPDVVLKQVHCEEFIPEFEKQYPEFPWTDVQAEIFRAFTELFQVACAKPPPLGLCDYPSSRAMYAVDLMLKWDNGPDGRRVMQPQILEVNFNPDCERACRYHPTFFNDVFSTLFLDQPGGCHVTCLV
For the molecule B1, the “fold increase in TTLL12 binding against the GST-only control” value in experiment [2] was ~5 fold.
